Experimental data published in the nanobody polyreactivity screen of Harvey et al. (2022).

Test: yeast display, Sf9 membrane polyspecificity reagent, FACS + sequencing; frameworks hold sequencing errors
Procedure, shortened: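 In a synthetic yeast display library (Saccharomyces cerevisiae BJ5465), nanobody expression was induced with galactose for 36–48 hours. FACS gates were set low and high (top ~1%) using anti-HA fluorescence for expression and streptavidin fluorescence for binding of the Sf9 membrane reagent. Each polyreactivity label is drawn from the gate of origin.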

Sequence	polyreactivity (PSR sort gate)
QVQLVESGGGLVQAGGSLRLSCAASGITSYGYAMGWYIQAPGKERELVAAISRSGGTTYYADSVKGRFTISRDNAKNTVYLQMNSLKPEDTAVYYCALGKSHRGGGVSKFNYWGQGTQVTVSS	low polyreactivity
QVQLVESGGGLVQAGGSLRLSCAASGITSYYYTMGWYRQAPGKERELVAAITSGGSTYYADSVKGRFTISRDNAKNTVYLQMNSLKPEDNAVYYCTADNPRYRGSKYGPYDDYNYWGQGTQVTVSS	low polyreactivity
QVQLVESGGGLVQAGGSLRLSCAASGITVFENAMGWYRQAPGKERELVAAISYSGGSTYYADSVKGRFTISRDNAKNTVYLQMNSLKPEDTAVYYCAADWYYFLYIRNRWGYGYWGQGTQVTVSS	high polyreactivity
QVQLVESGGGLVQAGGSLRLSCAASGITVGYYAMGWYRLAPGKERELVAAITRGGGSTYYADSVKGRFTISRDNAKYTVYVQKNSLKPEDTAVYYCAAKTSGPGAGHDYWGQGTQVTVSS	high polyreactivity
QVQLVESGGGLVQAGGSLRLSCAASGITYWKYAMGWYRQAPGKERELVAAISKSGGSTYYADSVKGRFTISRDNAKNTVYLQMNSLKPEDTAVYYCAAVPGPASKYGYWGQGTQVTVSS	high polyreactivity
QVQLVESGGGLVQAGGSLRLSCAASGKTFRYNAMGWYRQAPGKERELVAAISRRGGSTYYADSVKGRFTISRDNAKNTVYLQMNSLKPEDTAVYYCNAGRTAENEYWGQGTQVTVSS	high polyreactivity
QVQLVESGGGLVQAGGSLRLSCAASGLIFAGYTMGWYRQAPGKERELVAAISISGGSTYYADSVKGRFTISRDNAKNTVYLQMNSLKPEDTAVYYCASKRRSWPPTYYYWGQGTQVTVSS	high polyreactivity
QVQLVESGGGLVQAGGSLRLSCAASGLIFAIYAMGWYRQAPGNERELVAAIRWSGASTYADSVKGRFTISRDNAKNTVYLQMNSLKPEDTAVYYCAADDLLDYDYWGQGTQVTVSS	low polyreactivity
QVQLVESGGGLVQAGGSLRLSCAASGLIFARNAMGWYRQAPGKERELVAAITYSGSRTYYADSVKGRFTISRDNAKNTVYLQMNSLKPEDTAVYYCAARHRYSAVTEYNYWGQGTQVTVSS	high polyreactivity
QVQLVESGGGLVQAGGSLRLSCAASGLIFATYAMRWYRQAPGKERELVADITTTGSTYYADSVKGRFTISRDNAKNTVYLQMNSLKPEDTAVYYCAAYGRWLTWYDFDYWGQGTQVTVSS	high polyreactivity
QVQLVESGGGLVQAGGSLRLSCAASGLIFAYYAMGWYRQAPGKERELVAAISWSGDNTYYADSVKGRFTISRDNAKNTVYLEMNSLKPEDTAVYYCNVDTYGAWSWYYGLHHMDYWGQGTQVTVSS	low polyreactivity
QVQLVESGGGLVQAGGSLRLSCAASGLIFAYYTMGWYRQAPGKERELVAAITSGVRTYYADSVKGRFTISRDNAKNTVYLQMNSLKPEDTAVYYCAAGLSGSTQATIFWGYYYWGQGTQVTVSS	low polyreactivity
QVQLVESGGGLVQAGGSLRLSCAASGLIFDTYAMGWYRQAPGKEREWVADITWSGGSTYYADSVKGRFTISRDNAKNTVYLQMNSLKPEETAVYYCAADSVSLFYWDQRYPDEYDYWGQGTQVTVSS	low polyreactivity
QVQLVESGGGLVQAGGSLRLSCAASGLIFDYYAMGWYRQAPGKERELVAAISANTGRTYYADSVKGRFTISRDNAKNTVYLQMNSLKPEDTAVYYCAAYTQYDGAEFDYWGHGTQVTVSS	high polyreactivity
QVQLVESGGGLVQAGGSLRLSCAASGLIFENNAMGWYRQAPGKERELVAAITKGGGSTYYADSVKGRFTISRDNAKNTVYLQMNSLKPVDTAVYYCAKDHPWHRYWQYWYDYWGLGTQVTVSS	low polyreactivity
QVQLVESGGGLVQAGGSLRLSCAASGLIFENNAMGWYRQAPGKERELVAAITYSGGSTYYADSVKGRFTISRDNAKNTVYLQMNSLKPEDTAVYYCAAESYRRYGYDYWGQGTQVTVSS	high polyreactivity
QVQLVESGGGLVQAGGSLRLSCAASGLIFFWYTMGWYRKAPGKERELVAAIDSGGSTYYADSVKGRFTISRDNAKNTVYLQMNSLKPEDTAVYYCNADPGWGIYDDYWVQGTQVTVSS	high polyreactivity
QVQLVESGGGLVQAGGSLRLSCAASGLIFFWYTMGWYRQAPGKERELVAAISGSGTGTYYADSVKGRFTISRDNAKNTVYLQMNSLIPEDTAVYYCATDYVYRGYLMNYWGQGTQVTVSS	high polyreactivity
QVQLVESGGGLVQAGGSLRLSCAASGLIFFYLNDMGWYRQAPGKERELVATITSGTSTTYADSVKGRFTISRDNAKNTVYLQMNSLKPEDTAVYYCNATDVGIITVGYGHGGYYWGQGTQVTVSS	low polyreactivity
QVQLVESGGGLVQAGGSLRLSCAASGLIFGDYVMGWYRQAPGKERELVAAISNNGDSTYYADSVKGRFTISRDNAKNTVYLQMNSLIPEDTAVYYCNADGDRGGYVLTEHDSWGQGTQVTVSS	low polyreactivity
QVQLVESGGGLVQAGGSLRLSCAASGLIFGGTAMGWYRQAPGKERELVAAITYRTGSTYYADSVKGRFTISRDNAKNTVYLQMNSLKPEDTAVYYCAAAVSLGYPVAFYYWGQGTQVTVSS	low polyreactivity
QVQLVESGGGLVQAGGSLRLSCAASGLIFGKYAMGWYRQAPGKERELVAAITSSGGGTYYADSVKGRFTISRDNAKNTVYLQMNSLKPEDTAVYYCATGPDPKYDYWGQGTQVTVSS	high polyreactivity

Sequence	polyreactivity (PSR sort gate)
QVQLVESGGGLVQAGGSLRLSCAASGLIFGNYAMGWYRQAPGKERELVAAITSTGITYYADSVKGRFTISRDNAKNTVYLQMNSLKPEDTAVYYCNADYYRHSLDYDYVGYDYWGQGTQVTVSS	low polyreactivity
QVQLVESGGGLVQAGGSLRLSCAASGLIFGRNARGWYRQAPGKERELVAVISKRGGSTYYADSVKGRFTISRDNAKNTVYLQMNSLKPADTAVYYCAADYGSTGNYWGQGTQVTVSS	high polyreactivity
QVQLVESGGGLVQAGGSLRLSCAASGLIFGRYAMGWYRQAPGKERELVAGISGSGGITYYADSVKGRFTISRDTAKNTVYLQMHILKPEDTAVYYCATAAASHKYGYWGQGTQVTVSS	low polyreactivity
QVQLVESGGGLVQAGGSLRLSCAASGLIFGRYTMGWYRQAPGKEREFVAAISRSGGSTYYADSVKGRFTISRDNAKITVYLQRNSLKPEDTAVYYCAARGSYTRPKRYGYWGQGTQVTVSS	high polyreactivity
QVQLVESGGGLVQAGGSLRLSCAASGLIFGVNAMGWYRQAPGKEMELVAAITSRGGSTYYADSVKGRFTISRDNAKNTVYLQMNSLKPEDTAVYYCAAKYAYYEPYSWRPQRTYNYWGQGTQVTVSS	high polyreactivity
QVQLVESGGGLVQAGGSLRLSCAASGLIFGVNAMGWYRQAPGKEREFVARITRSGSSTYYADSVKGRFTISRDNAKNTVYLQMNSLKPEDTAVYYCAVDLFYKYDWGQGTQVTVSS	high polyreactivity
QVQLVESGGGLVQAGGSLRLSCAASGLIFGVYAMGWYRQAPGKERELVAGISWRGSSTYYADSVKGRFTISRDNAKNTVYLQMNSLKPEDTAVYYCAAVRRPSRHAYGGTAVYYWGQGTQVTVSS	high polyreactivity
QVQLVESGGGLVQAGGSLRLSCAASGLIFGYNAMGWYRQAPGKERELVAAISRRGTSTYYADSVKGRFTISRDNAKNTVYLQMNSLKPEDTAVYYCATYGVNPPGVEEYNYWGQGTQVTVSS	high polyreactivity
QVQLVESGGGLVQAGGSLRLSCAASGLIFGYNAMGWYRQAPGKERELVASINWSTGRTRYADSVKGRFTISRDNAKNTVYLQMNSLKPEDTAVYYCAARLYNPYPYEYWGQGTQVTVSS	high polyreactivity
QVQLVESGGGLVQAGGSLRLSCAASGLIFIGYAKGWSRQAPGKERELVASIRGVGSTNYADSVKGRFTISRDNAKNTVYLQMHSLKPEDTAVYYCATSVDRALYTQTRGDYDYWGQGTQVTVSS	low polyreactivity
QVQLVESGGGLVQAGGSLRLSCAASGLIFIRYAMGWYRQAPGKERELVAAISWPGGNTYYADSVKGRFTISRDNAKNTVYLQMNSLKPEDTAVYYCAAVGTWQHRSYGYWGQGTQVTVSS	high polyreactivity
QVQLVESGGGLVQAGGSLRLSCAASGLIFISYAMGWYRQAPGKERELVAAITSTVGGTYYADSVKGRFTISRDNAKNTVYLQMNSLQPEDTAVYYCAKEVWTWGPYYYWGQGTQVTVSS	low polyreactivity
QVQLVESGGGLVQAGGSLRLSCAASGLIFKYNVMGWYRQAPGKERELVAAITWGGTRTYYADSVKGRFTISRDNAKNTVYLQMNSLKPEDTAVYYCAVRSARIERNYWGQGTQVTVSS	low polyreactivity
QVQLVESGGGLVQAGGSLRLSCAASGLIFLQYGLGWYRQAPGKERALVAAITTRGGRTYYADSVKGRFTISRDNANNTVYLQMNSLKPEDTAVYYCAADSEQDNLRYYRWVWYYYWGQGTQVTVSS	low polyreactivity
QVQLVESGGGLVQAGGSLRLSCAASGLIFLQYVMGWYRQAPGKEREFVATITDDGDTTYYADSVKGRFTISRDNAKNTVYLQMNSLKPEDTAVYYCAARYVPVYYWDYPYDYWGQGTQVTVSS	low polyreactivity
QVQLVESGGGLVQAGGSLRLSCAASGLIFNKYTMGWYRQAPGTERELVAAISKSGGSTYYADSVKGRFTISRDNAKNTVYLQMNSLKPEDTAVYYCNRVTHYIRFDYWGQGTQVTGSS	low polyreactivity
QVQLVESGGGLVQAGGSLRLSCAASGLIFPCYDMGWYRQAPGKERELVAAISDSGANTYYADSVKGRFTISRDNAKNTVYFQMNSLKPEDTAVYYCAAESSWWYGTSFGRFDYWGQGTQVTVSS	low polyreactivity
QVQLVESGGGLVQAGGSLRLSCAASGLIFPDYDMGWYIQAPGKERELVAAISIGGVSTYYADSVKGRFTISRDNAKNTVYLQMNSLKPEDTAVYYCAAYYSYVYYVGDSDDYWGQGTQVTVSS	low polyreactivity
QVQLVESGGGLVQAGGSLRLSCAASGLIFPIYTMGWYRQAPGKERELVAAISSRGGSTYYADSVKGRFTISRDNAKNTVYLQMNSLKPEDTAVYYFGSYDYSGQGTQVTVSS	high polyreactivity
QVQLVESGGGLVQAGGSLRLSCAASGLIFPQYAMGWYRQAPGKERELVAAISLSGTSTNYADSVKGRFTISRDNAKNTVYLQMNSLKPEDTAVYYCLADQRITQSVELEYDSWGQGSQVTVSS	low polyreactivity
QVQLVESGGGLVQAGGSLRLSCAASGLIFPRYAMGWYRQAPGKERELVAAITRGGSTYYADSVKGRFTISRDNAKNTVYLQMNSLKPEDTAVYYCNAELPVHWSWYDYWGQGTQVTVSS	low polyreactivity
